# Data taken from publication PMC4751646, “Red Sea Atlantis II brine pool nitrilase with unique thermostability profile and heavy metal tolerance” (BMC Biotechnology, 2016).
# Tested on: N#CCCC#N
# Assay: purified protein
# Format: biochemical, uncultured Burkholderiaceae bacterium
# Conditions: 50 mM potassium phosphate pH 7.0, 40 °C, 2 mM DTT, 0-975 mM substrate
substance,measurement,value
NitraS-ATII (uncultured Burkholderiaceae bacterium),Km,59.4 ± 6.8 mM
same,kcat,0.472 s⁻¹
